The target in the experiment is αVβ3 integrin (human (endogenous in THP-1)) (UniProt P06756).
Sequence of UniProt P06756 (P06756 31-1048, chain 1 of 2): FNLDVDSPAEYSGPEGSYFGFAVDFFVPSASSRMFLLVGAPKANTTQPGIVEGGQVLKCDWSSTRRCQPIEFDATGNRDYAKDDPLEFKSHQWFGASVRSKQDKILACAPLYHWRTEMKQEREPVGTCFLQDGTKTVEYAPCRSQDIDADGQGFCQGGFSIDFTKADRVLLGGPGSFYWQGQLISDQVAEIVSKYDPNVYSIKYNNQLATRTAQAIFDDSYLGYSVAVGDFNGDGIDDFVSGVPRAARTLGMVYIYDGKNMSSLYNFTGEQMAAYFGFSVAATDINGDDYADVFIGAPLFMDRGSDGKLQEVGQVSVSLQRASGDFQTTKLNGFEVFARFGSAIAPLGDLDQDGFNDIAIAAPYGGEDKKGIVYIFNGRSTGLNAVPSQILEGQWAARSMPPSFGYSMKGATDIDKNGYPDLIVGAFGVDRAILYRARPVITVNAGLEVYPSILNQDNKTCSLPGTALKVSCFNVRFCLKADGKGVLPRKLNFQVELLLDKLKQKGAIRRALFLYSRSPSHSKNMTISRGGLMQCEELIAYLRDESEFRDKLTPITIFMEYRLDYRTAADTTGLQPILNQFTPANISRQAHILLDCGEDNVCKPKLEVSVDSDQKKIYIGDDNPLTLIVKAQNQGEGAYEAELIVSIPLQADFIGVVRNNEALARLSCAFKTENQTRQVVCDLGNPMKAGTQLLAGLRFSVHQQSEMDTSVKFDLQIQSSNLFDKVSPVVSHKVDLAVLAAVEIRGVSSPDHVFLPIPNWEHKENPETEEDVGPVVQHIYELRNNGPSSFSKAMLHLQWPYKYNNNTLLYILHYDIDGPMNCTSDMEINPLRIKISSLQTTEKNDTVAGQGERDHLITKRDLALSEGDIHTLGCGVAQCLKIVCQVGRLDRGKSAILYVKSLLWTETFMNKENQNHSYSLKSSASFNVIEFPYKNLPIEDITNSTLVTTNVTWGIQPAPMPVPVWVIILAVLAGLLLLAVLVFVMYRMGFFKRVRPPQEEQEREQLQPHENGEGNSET
Sequence of UniProt P06756 (P05106 27-788, chain 2 of 2, further chain): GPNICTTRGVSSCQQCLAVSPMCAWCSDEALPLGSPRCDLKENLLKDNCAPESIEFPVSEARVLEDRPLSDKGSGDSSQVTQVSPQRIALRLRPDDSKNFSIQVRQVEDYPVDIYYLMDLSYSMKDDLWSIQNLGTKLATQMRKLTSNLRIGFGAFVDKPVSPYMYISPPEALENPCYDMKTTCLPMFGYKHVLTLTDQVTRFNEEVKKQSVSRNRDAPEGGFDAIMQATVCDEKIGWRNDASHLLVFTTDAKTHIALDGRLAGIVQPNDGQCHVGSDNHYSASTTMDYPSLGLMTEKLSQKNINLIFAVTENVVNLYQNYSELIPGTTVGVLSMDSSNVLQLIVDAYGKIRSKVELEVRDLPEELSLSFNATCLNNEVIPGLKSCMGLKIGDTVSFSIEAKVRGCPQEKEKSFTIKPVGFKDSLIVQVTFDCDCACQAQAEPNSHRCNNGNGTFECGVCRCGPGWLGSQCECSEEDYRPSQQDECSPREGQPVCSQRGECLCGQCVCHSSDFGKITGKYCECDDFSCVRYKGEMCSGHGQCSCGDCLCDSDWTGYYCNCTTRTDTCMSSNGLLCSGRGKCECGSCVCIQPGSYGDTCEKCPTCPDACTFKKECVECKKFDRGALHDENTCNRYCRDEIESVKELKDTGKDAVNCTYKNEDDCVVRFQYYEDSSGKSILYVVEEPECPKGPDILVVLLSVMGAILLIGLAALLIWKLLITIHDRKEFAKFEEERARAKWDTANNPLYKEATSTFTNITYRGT

In turn, Lunasin (peptide) returned a decrease in free intracellular Ca^2+ (Fluo-4, live-cell confocal imaging) in LPS-induced THP-1 macrophages after lunasin (1 µM), over 6.67 min (400 frames); resurgence after 30 min of 34.6%.

The record behind these values is PMC3764169.
